Residue numbers refer to the chain shown, from its start.
B1: WapR-001: anti-Psl monoclonal antibody, class II epitope; VH SEQ ID NO: 5, VL SEQ ID NO: 6 (antibody, V domains shown)
VH: EVQLLESGGGLVQPGGSLRLSCSASGFTFSRYPMHWVRQAPGKGLEYVSDIGTNGGSTNYADSVKGRFTISRDNSKNTVYLQMSSLRAEDTAVYHCVAGIAAAYGFDVWGQGTMVTVSS
VL: QAGLTQPASVSGSPGQSITISCTGTSSDIATYNYVSWYQQHPGKAPKLMIYEGTKRPSGVSNRFSGSKSGNTASLTISGLQAEDEADYYCSSYARSYTYVFGTGTELTVL
modifications: WapR-001 VH; WapR-001 VL
B2: WapR-003: anti-Psl monoclonal antibody, class II epitope; VH SEQ ID NO: 9, VL SEQ ID NO: 10 (antibody, V domains shown)
VH: QMQLVQSGGGLVQPGGSLRLSCSASGFTFSSYPMHWVRQAPGKGLDYVSDISPNGGATNYADSVKGRFTISRDNSKNTVYLQMSSLRAEDTAVYYCVMGLVPYGFDNWGQGTMVTVSS
VL: QTVVTQPASVSASPGQSITISCAGTSGDVGNYNFVSWYQQHPGKAPKLLIYEGSQRPSGVSNRFSGSRSGNTASLTISGLQAEDEADYYCSSYARSYTYVFGTGTKLTVL
modifications: WapR-003 VH; WapR-003 VL
B3: WapR-002: anti-Psl monoclonal antibody, class II epitope; VH SEQ ID NO: 7, VL SEQ ID NO: 8 (antibody, V domains shown)
VH: B2 VH with M2V, A57S, V79L, Y80F, N107I, M113L
VL: QTVVTQPASVSGSPGQSITISCTGTSSDVGGYNYVSWYQQHPGKAPKLMIYEVSNRPSGVSNHFSGSKSGNTASLTISGLQAEDEADYYCSSYTTSSTYVFGTGTKVTVL
modifications: WapR-002 VH; WapR-002 VL

Assays:
Psl = test: mAb reactivity with Psl after mild alkaline treatment during carbohydrate purification; format: binding, P. aeruginosa; settings: data not shown
Excerpt: This observation raises the possibility that the class I mAb binds to a conformational epitope or a yet to be elucidated sub-stoichiometric Psl isoform. The potential for the latter is supported by the observation that mild alkaline, but not exhaustive protease treatment, during carbohydrate purification abolishes Cam-003 reactivity while maintaining WapR-001 and WapR-016 reactivity (data not shown).

[1] = system: attachment of Pseudomonas aeruginosa to epithelial cells; settings: mAb concentration giving max. inhibition of cell attachment; cited from earlier work
P. aeruginosa = settings: cited from earlier work
[2] = biological target: Pseudomonas aeruginosa Psl exopolysaccharide; settings: anti-Psl mAb binding; cited from earlier work

Row | Molecule | mAb reactivity after mild alkaline treatment of Psl (Psl) | Cell attachment max. inhibition [1] [µg/mL] | OPK EC50 (P. aeruginosa) [µg/mL] | Kd [2] [nM]
1 | B1 | maintaining | 30.0 | 0.310 | 0.84
2 | B2 |  | 30.0 | 0.278 | 12.2
3 | B3 |  | 30.0 | 0.396 | 12.6

Source: US10870710B2, “Synthetic oligosaccharide subunits of the Psl exopolysaccharide of pseudomonas aeruginosa and uses thereof” (Medlmmune Limited, priority 2013, dated 2020)
